Drawing on the RNAGym collection of RNA variant scans (doi:10.1093/molbev/msab373), this text covers reverse-splicing fitness for 83 variants.

B1: Azoarcus group I ribozyme (parent)
chain: GUGCCUUGCGCCGGGAAACCACGCAAGGGAUGGUGUCAAAUUCGGCGAAACCUAAGCGCCCGCCCGGGCGUAUGGCAACGCCGAGCCAAGCUUCGGCGCCUGCGCCGAUGAAGGUGUAGAGACUAGACGGCACCCACCUAAGGCAAACGCUAUGGUGAAGGCAUAGUCCAGGGAGUGGCGAAAGUCACACAAACCGG

The variants in the data set derive from B1. Kind of data set: reverse-splicing fitness (ratio to wild type); higher = more active; in vitro selection; Mg2+ level not given. In a few lines: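 An in vitro group I ribozyme library with randomized positions was T7-transcribed and gel-purified. In triplicate, 10 pmol RNA in EPPS pH 7.5 was reacted with 50 pmoles of a 30-nt RNA substrate for 1 h at 37 °C across several added MgCl2 levels (1–48 mM), then stopped with EDTA. Products were reverse transcribed from a substrate-complementary primer, PCR-amplified and sequenced (HiSeq 4000). Fitness is a variant's read proportion after selection over that before, normalised to wild type.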
On to A111U A145C C150U C169U U176G, for which the reverse-splicing fitness was found to be 0.00571. Take A111U A145C C150U C169U U176A: the reverse-splicing fitness stood at 0.0173. In the case of A111U A145C C150U C169U U176C, the reverse-splicing fitness was found to be 0.0152.

With A111U A145G C150A C169U, the reverse-splicing fitness came out at 0.0213. As for A111U A145G C150A C169A, the reverse-splicing fitness is 0.0132. In the case of A111U A145G C150A C169G, the reverse-splicing fitness is 0.0147.

Consider A120C A145C C150A C169U, for which the reverse-splicing fitness was found to be 0.0518.

For the variant A120C A145C C150A C169A, the reverse-splicing fitness came out at 0.00701. For A120C A145C C150A C169G the value was 0.00626. For A111U C150A C169A U176A the value was 0.0182; for A111U C150A C169A U176G, 0.00646; for A111U C150A C169A U176C, 0.0168.

Regarding A111U A145G C169A U176A, the reverse-splicing fitness stood at 0.0211. For A111U A145G C169A U176G the value was 0.00593. For the variant A111U A145G C169A U176C, the reverse-splicing fitness came out at 0.0305. For A111U A145G C150G C169U U176G the value was 0.0076; for A111U A145G C150G C169U U176C, 0.0136; for A111U A145G C150G C169U U176A, 0.0111.

Consider A111U A145U C169A U176G, for which the reverse-splicing fitness was found to be 0.00631. For A111U A145U C169A U176A the value was 0.0113; for A111U A145U C169A U176C, 0.0115; for A111U A145G C150A C169A U176C, 0.0233.

A111U A145G C150A C169A U176A: the reverse-splicing fitness was found to be 0.0172. For A111U A145G C150A C169A U176G the value was 0.0068. Next, A111U A120U C150A C169G: 0.00631; A111U A120U C150A C169A: 0.00436; A111U A120U C150A C169U: 0.00846. Next, A111U A145U C150G C169A U176A: 0.0103. A111U A145U C150G C169A U176C: the reverse-splicing fitness was 0.0101. For A111U A145U C150G C169A U176G the value was 0.00591; for A111U A145C C169A U176G, 0.00602; for A111U A145C C169A U176C, 0.00885. Next, A111U A145C C169A U176A: 0.0105; A111U C150G C169A U176C: 0.0111. Consider A111U C150G C169A U176A, for which the reverse-splicing fitness was determined as 0.0102.

In the case of A111U C150G C169A U176G, the reverse-splicing fitness was 0.00689. For A111U C169G U176C the value was 0.0333; for A111U C169G U176G, 0.00596; for A111U C169G U176A, 0.02.

As to A111U C150U U176C, the reverse-splicing fitness is 0.638. For A111U C150U U176G the value was 0.251.

In the case of A111U C150U U176A, the reverse-splicing fitness came out at 0.6. Next, A111U A145U C169U U176C: 0.0326. Next, A111U A145U C169U U176G: 0.00639; A111U A145U C169U U176A: 0.0258; A111U A120U C169U U176G: 0.00332. For A111U A120U C169U U176A, the reverse-splicing fitness was determined as 0.0126. For A111U A120U C169U U176C the value was 0.0202; for A120C A145C C150A U176A, 0.112; for A111U C150G C169A, 0.00956. Next, A111U C150G C169G: 0.00998; A111U C150G C169U: 0.0141. For A111U A145G U176A the value was 0.701; for A111U A145G U176C, 0.721; for A111U A145G U176G, 0.267. For A111U A120U C150U C169G U176G, the reverse-splicing fitness amounted to 0.00213.

A111U A120U C150U C169G U176C: the reverse-splicing fitness was found to be 0.00679. For A111U A120U C150U C169G U176A, the reverse-splicing fitness was 0.00847. For A111U C169A U176G the value was 0.00592; for A111U C169A U176C, 0.0214. As for A111U C169A U176A, the reverse-splicing fitness was found to be 0.0172. Take A111U C150A C169G U176C: the reverse-splicing fitness is 0.0236. Next, A111U C150A C169G U176A: 0.0165; A111U C150A C169G U176G: 0.00571; A111U A145G C150G C169G U176G: 0.00597. Regarding A111U A145G C150G C169G U176A, the reverse-splicing fitness worked out at 0.00998. For A111U A145G C150G C169G U176C the value was 0.0116; for A111U C150U, 0.89; for A111U C150G, 0.308. For A111U C150A the value was 0.372; for A120C A145C C150A C169A U176G, 0.00372; for A120C A145C C150A C169A U176A, 0.00897. Take A120C A145C C150A C169A U176C: the reverse-splicing fitness amounted to 0.00472. Next, A111U A145C C169G: 0.0589. Next, A111U A145C C169U: 0.108; A111U A145C C169A: 0.027; A120C A145C C150A: 0.128. For A120C A145C C150A C169G U176C the value was 0.00769; for A120C A145C C150A C169G U176A, 0.0166.

As for A120C A145C C150A C169G U176G, the reverse-splicing fitness stood at 0.00492. Next, A120C: 0.9; A111U A120U C150U C169U U176A: 0.0088; A111U A120U C150U C169U U176C: 0.0116.
